Changes are numbered by the printed parent chain. Numbers in names are those of the source.
B1: I283T-N285P-N287T-Q290E-S322T-N388M-K394R-C430A-L432F-L434W-S436N-i444aS-dG462 (protein)
chain: MFLKSLREQINLLKRQGDLRIINRPVDSYLEAAAIIRRSTETKAPVPLMTNIKGYPGCSIVGGLAALSSNPEYPLSRVAMSLGLSTTASAQSIVQYLIDGLKKTPYLPVEIDSNSAPCKQNILRGEDASLAHFPIPQVHQHDGNRYVNTWGVFIVESPDGQWCNWSIQRVQYLNDRQMIALVFPSQHISDIWEEWVKIGKPMPYALVQGCEPIVPYIAGLPLLERNVNEAEYIGALYGKGIEVVKCETHDLRVPASSEVVIEGYFAITREGVEGPFGEFAGYTPPETSLEPILSITAISWQDDPIWPVVAEGKPVDEYHTCTGIGDAAAIQNVLLTANLPVSFVWVPLYSACHLMIVSINRHWRQTHPDLTSEQLTKKVGDVIHQTRMSIKLPRIVVLDDDVDPADTESLLWALATRIHPERKRYFYESAIFPWLNCYSEEERHNRKGKRVIIDALLPENHGAISSFDYAYPDDIKQRVLMHWETDFSHD
B2: L223Y-I283T-N285P-N287T-Q290E-S322T-N388M-K394R-K423G-C430A-i430aL-L432F-L434W-S436N-dG462 (protein)
chain: B1 chain with L223Y, K423G
B3: I283T-N285P-N287T-Q290E-S322T-N388M-K394R-C430A-L432F-L434W-S436N-i447aK-dG462 (protein)
chain: B1 chain
B4: I283T-N285P-N287T-Q290E-S322T-N388M-K394R-E421F-C430A-L432F-L434W-S436N-i448aS-dG462 (protein)
chain: B1 chain with E421F
B5: L222V-I283T-N285P-N287T-Q290E-S322T-N388M-K394R-C430A-i430aG-L432F-L434W-S436N-dG462 (protein)
chain: B1 chain with L222V
B6: I283T-N285P-N287T-Q290E-S322T-N388M-K394R-E421F-C430A-i430aG-L432F-L434W-S436N-dG462 (protein)
chain: B1 chain with E421F
B7: I283T-N285P-N287T-Q290E-S322T-N388M-K394R-C430A-L432F-L434W-S436N-i447aY-dG462 (protein)
chain: B1 chain
B8: L223Y-I283T-N285P-N287T-Q290E-S322T-N388M-K394R-K423G-C430A-i430aG-L432F-L434W-S436N-dG462 (protein)
chain: B1 chain with L223Y, K423G
B9: L223Y-I283T-N285P-N287T-Q290E-S322T-N388M-K394R-C430A-i430aN-L432F-L434W-S436N-dG462 (protein)
chain: B1 chain with L223Y
B10: L223Y-I283T-N285P-N287T-Q290E-S322T-N388M-K394R-K423G-C430A-L432F-L434W-S436N-i448aS-dG462 (protein)
chain: B1 chain with L223Y, K423G
B11: I283T-N285P-N287T-Q290E-S322T-N388M-K394R-E421F-C430A-i430aL-L432F-L434W-S436N-dG462 (protein)
chain: B1 chain with E421F
B12: I283T-N285P-N287T-Q290E-S322T-N388M-K394R-C430A-L432F-L434W-S436N-i445aQ-dG462 (protein)
chain: B1 chain
B13: I283T-N285P-N287T-Q290E-S322T-N388M-K394R-C430A-i431aG-L432F-L434W-S436N-dG462 (protein)
chain: B1 chain
B14: L223Y-I283T-N285P-N287T-Q290E-S322T-N388M-K394R-C430A-i430aL-L432F-L434W-S436N-dG462 (protein)
chain: B1 chain with L223Y
B15: L223Y-I283T-N285P-N287T-Q290E-S322T-N388M-K394R-C430A-L432F-L434W-S436N-C437L-dG462 (protein)
chain: B1 chain with L223Y, C437L
B16: I283T-N285P-N287T-Q290E-S322T-N388M-K394R-C430A-i431aN-L432F-L434W-S436N-dG462 (protein)
chain: B1 chain
B17: I283T-N285P-N287T-Q290E-S322T-N388M-K394R-C430A-L432F-L434W-S436N-i449aS-dG462 (protein)
chain: B1 chain
B18: L223Y-I283T-N285P-N287T-Q290E-S322T-N388M-K394R-C430A-i430aG-L432F-L434W-S436N-C437L-dG462 (protein)
chain: B1 chain with L223Y, C437L
B19: I283T-N285P-N287T-Q290E-S322T-N388M-K394R-C430A-L432F-L434W-S436N-i448aS-dG462 (protein)
chain: B1 chain
B20: I283T-N285P-N287T-Q290E-S322T-N388M-K394R-C430A-i431aL-L432F-L434W-S436N-dG462 (protein)
chain: B1 chain
B21: L223Y-I283T-N285P-N287T-Q290E-S322T-N388M-K394R-C430A-i430aG-L432F-L434W-S436N-dG462 (protein)
chain: B1 chain with L223Y
B22: L223Y-I283T-N285P-N287T-Q290E-S322T-N388M-K394R-K423G-C430A-i430aN-L432F-L434W-S436N-dG462 (protein)
chain: B1 chain with L223Y, K423G
B23: I283T-N285P-N287T-Q290E-S322T-N388M-K394R-C430A-i430aG-L432F-L434W-S436N-V451S-dG462 (protein)
chain: B1 chain with V451S
B24: I283T-N285P-N287T-Q290E-S322T-N388M-K394R-E421F-C430A-i430aN-L432F-L434W-S436N-dG462 (protein)
chain: B1 chain with E421F
B25: L223Y-I283T-N285P-N287T-Q290E-S322T-N388M-K394R-E421F-C430A-L432F-L434W-S436N-dG462 (protein)
chain: B1 chain with L223Y, E421F
B26: H141C-I283T-N285P-N287T-Q290E-S322T-N388M-K394R-C430A-i430aG-L432F-L434W-S436N-dG462 (protein)
chain: B1 chain with H141C
B27: I283T-N285P-N287T-Q290E-S322T-N388M-K394R-C430A-L432F-L434W-S436N-i447aP-dG462 (protein)
chain: B1 chain
B28: L223Y-I283T-N285P-N287T-Q290E-S322T-N388M-K394R-E421F-K423G-C430A-L432F-L434W-S436N-dG462 (protein)
chain: B1 chain with L223Y, E421F, K423G
B29: V382L-N388M-K394R-C430N-L432F-L434W-S436N (protein)
chain: B1 chain with T283I, P285N, T287N, E290Q, T322S, V382L, A430N
B30: L223Y-I283T-N285P-N287T-Q290E-S322T-N388M-K394R-i429aN-C430A-L432F-L434W-S436N-dG462 (protein)
chain: B1 chain with L223Y
B31: I283T-N285P-N287T-Q290E-S322T-N388M-K394R-C430A-i430aG-L432F-L434W-S436N-C437L-dG462 (protein)
chain: B1 chain with C437L
B32: I283T-N285P-N287T-Q290E-S322T-N388M-K394R-C430A-L432F-L434W-S436N-i447aL-dG462 (protein)
chain: B1 chain

System: 3-methylcrotonic acid
Format: biochemical, Yersinia frederiksenii
Parameters: key: “+” representing a low increase in activity; “++++” representing a high increase in activity

For B1, which “Activity relative to WT” value is on record?
The value was “++++”.

Which “Activity relative to WT” value does the source give for B2 here?
Its value is “++++”.

How did the “Activity relative to WT” value turn out when B3 was run?
Its value is “++++”.

B4 was tested. Which “Activity relative to WT” value did it give?
Its value is “++++”.

How did the “Activity relative to WT” value turn out when B5 was run?
The value was “++++”.

Which “Activity relative to WT” value does the source give for B6 here?
Its value is “++++”.

Which “Activity relative to WT” value does the source give for B7 here?
The value was “++++”.

Which “Activity relative to WT” value does the source give for B8 here?
The value was “++++”.

For B9, which “Activity relative to WT” value is on record?
The value was “++++”.

How did the “Activity relative to WT” value turn out when B10 was run?
The value was “++++”.

With B11 as the molecule, how does the “Activity relative to WT” value read?
Its value is “++++”.

Which “Activity relative to WT” value does the source give for B12 here?
Its value is “++++”.

Which “Activity relative to WT” value does the source give for B13 here?
The value was “++++”.

B14 was tested. Which “Activity relative to WT” value did it give?
Its value is “++++”.

For B15, which “Activity relative to WT” value is on record?
Its value is “++++”.

Which “Activity relative to WT” value does the source give for B16 here?
The value was “++++”.

Which “Activity relative to WT” value does the source give for B17 here?
Its value is “++++”.

How did the “Activity relative to WT” value turn out when B18 was run?
Its value is “++++”.

How did the “Activity relative to WT” value turn out when B19 was run?
Its value is “++++”.

For B20, which “Activity relative to WT” value is on record?
Its value is “++++”.

For B21, which “Activity relative to WT” value is on record?
The value was “++++”.

Which “Activity relative to WT” value does the source give for B22 here?
Its value is “++++”.

Which “Activity relative to WT” value does the source give for B23 here?
Its value is “++++”.

How did the “Activity relative to WT” value turn out when B24 was run?
The value was “++++”.

For B25, which “Activity relative to WT” value is on record?
Its value is “++++”.

With B26 as the molecule, how does the “Activity relative to WT” value read?
The value was “++++”.

B27 was tested. Which “Activity relative to WT” value did it give?
Its value is “++++”.

Which “Activity relative to WT” value does the source give for B28 here?
Its value is “++++”.

How did the “Activity relative to WT” value turn out when B29 was run?
Its value is “+”.

For B30, which “Activity relative to WT” value is on record?
The value was “++++”.

With B31 as the molecule, how does the “Activity relative to WT” value read?
Its value is “++++”.

How did the “Activity relative to WT” value turn out when B32 was run?
Its value is “++++”.
